Data taken from the nanobody polyreactivity screen of Harvey et al. (2022).

Test: yeast display, Sf9 membrane polyspecificity reagent, FACS + sequencing; frameworks hold sequencing errors
Method in brief: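 Synthetic nanobody libraries on Saccharomyces cerevisiae BJ5465 were galactose-induced for 36–48 hours, stained 1 hour at 4 °C with 10% biotinylated, detergent-solubilized Sf9 membrane reagent and enriched on streptavidin microbeads. FACS then separated cells into low and high (top ~1%) gates by anti-HA (expression) and streptavidin (reagent binding) fluorescence. Genes were colony-PCR amplified, MiSeq 2 × 250 sequenced and CDR-length filtered. A clone's polyreactivity label is that of its gate of origin.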

Sequence	polyreactivity (PSR sort gate)
QDQLVESGGGFVQAGGSLRLSCAASGITFPLYALGRYRQPPGKERELVAAISRNGGRTYYADSVKVRFTMSRDNAKNTVYLQMNSMKPEDTAVYYCAKVSRGSVSSPPDDYWGQGTQVTVSS	high polyreactivity
QVQLVESGGGLVQAGGSLRLSCAASGFTFGYYALGWYRQAPGKERELVAAINYSGGSTYYADSVKGRFTISRDNAKNTVYLQMNSLKPEDTAVYYCAAQSYYGRGYWGQGTQVTVSS	high polyreactivity
QDQLVESGGGFVQARGSLRLSCAACGFIFYANAMGWYRQAPGKERELVAGISWSGTSTYYADSVKGRFTISRDNAKNTVYLQMNSLKPEDTAVYYCNRVFYHFDVDRYDYWGQGTQVTVSS	low polyreactivity
QVQLVESGGGLVQAGGSLRLSCAASGSIFYYYAMGWYRQAPGKERELVAAITYRGTRTYYADSVKGRFTISRDNAKNTVYLLMNSLKPEDTAVYYCAAERRIYSSDSWGQGTQVTVSS	high polyreactivity
QVQLVESGGGLVQAGGRLSLSCAASGSIFRNNTMGWYRQAPGKERELVAAISGRGTPTSYADSVKGRFTISRDNAKNTVYLQMNSLKPEDTAVYYCAAVYYWRPGWYVRFDYWGQGTQVTVSS	low polyreactivity
QVQLVESGGGLVQAGCSLRLSCAASGRTFARYAMGWSRQAPGKVRELVAGISRSGDSTHYADSVKGRFTISRDNAKNTVYLQMNSRKPEDTSVYYCHKETPTIGARKYEYWGQGTQVTVSS	low polyreactivity
QVQIVESGGGLVQAGGSLRLSCAASGRIFHWYTMGWYRQAPGKERELVAAISGSGGSTHYADSVKGRFTISRDNAKNTVYLQMNSLKPEDTAVYYCAADDGFYGQDLDYWGQGTQVTVSS	low polyreactivity
QVQLVESGGGLVQAGGSLRLSCAASGTFFGYAMGWYRQAPGKERELVAAITSGGSTYYADSVKGRFTISRDNAKNTVYLQMNSLKPEVTAVYYCARVYSRWSYRYDYWGQGTQVTVSS	low polyreactivity
QVQLVESGGGLVQAGGSLRLSCAASGYIFGYNTMGWYRQAPGKERELVAAISKSGGRTYYADSVKGRFTISRDNAKNTVYLQMNSLKPEDTAVYYCAADGWSGKLRYTRYDYWGQGTQVTVSS	high polyreactivity
QVQLVESGGGLVQAGGTLRLSCAASGIIFSFYTMGWYRQAPGKERELVAAITWSGGSTYYADSVKGRFTISRANAKNTVYLQMNSLKPEDTAVYYCNARNPWRKRSQGYSWGQGTQVTVSS	low polyreactivity
QVQLVESGGGLVQAGGSLRLSCAASGRIFDGYAMGWYRQAPGKEWELVASISDDGGSTYYADSVKGRFTISRDNEQNTVYLQLNSLKPDDTAVYYCAAVYRRRSYSFYYWGHGTQVTVSS	high polyreactivity
QVQLVESGGGLVQAGGSLRLSCAASGSTFVVNAMGWYRQAPGKERELVAAITQSGGSTFYADSVKGRFTISRDNAKNTVYLQMNSLKPEETAVYYWGHGTQVTVSS	low polyreactivity
QVQLVESGGGLVQAGGSLRLSCAASGSTIHINAMGWYRQAPGKERELVADINWSGGSTYYADSVKGRFTISRDNAKNTVYLQMNSLKPADSAVYYCAADVGVFTYSPYDAGEHDYWGQGSQVTVSS	low polyreactivity
QVQLVESAGGLVQAGGSLRLSSAASGRIFLYYAMGWYRQAPGKEREFVAAITYIGGSTYYADSVKGRFTISRDNAKNTVYLQMNSLKPEDTAVYWGEGTQVTVSS	low polyreactivity
QVQLVESGGGLVQAGGSLRLSCAASGITFKLNAMGWYRQAPGKERELVAAISYNGVRTYYADSVKGRFTISRDNAKNTVYLQMNRLKPEDTAVYYCAALLRGQDRTMDYWGQGTQVTVSS	high polyreactivity
QVQVVESGGGLVQAGGSLGLSCAASGRTFGSNAMGWYRQAPGKERELVAAISSTVSTNYADSVKGRFTISSDNANNTVYLQMNSLKPEDTAVYFCNVTRHYSYVSEYDYWGQGTQVTVSS	low polyreactivity
QVQLVESGGGLVQAGGSLRLSCAASGSTFRRNAMGWYRQAPGKERELVAAIRYSGSSTYYADSVKGRFTISRGNAKNTVYLQMNSLKPEDTAVYYCATVRNNRYKYDYWGQGTQVTVSS	high polyreactivity
QVQLVESGGGLVQAGGSLRLSCAASGGIFSTYTMGWYRQAPGKERELVAAISQSGGTTYYADSVKGRFTISRDNAKNTVYLQMNSLKPEDTAVYYCAAEPTQADYDYWGQGTQVTVSS	low polyreactivity
QVQLVESGGGLVKAGGSLRLSCAASGSIFRYYTMGWYRQAPGKEWELVAAINGSGGSTYYADSVKGRFTISRDTAKNTVYLQMNSLKPEDTAVYYCNRVTKEYGLRQYYYWGQGTQVTVSS	low polyreactivity
QVQLVESGGGLVQAGGSLRLSCAASGSIFQKYAMGWYRPAPGKERELVAAITSSGSTNYADSVKGRFTISRDNAKNTVYLQMNSLKPEDTAVYYCAADRYAGYYSWYYPLWSSKDDYWGQGTQVTVSS	low polyreactivity
QVQLVESGGGLVQAGGSLRLSCAASGSIFKYYAMGWYRQAPGKERELVAAISSGGITNYADSVKGRFTISRDNAKNTVYLQMNSLKPEDTAVYYCAARDYVRLGLYDYDYWGQGTQVTVSS	low polyreactivity
QVQLVESGGGLVQAGGSLRLSCAASGFTFLKNAMVWYRQAPGKERELVAAITGSGGSTYYADSVKGRFTISRDNAKNTVYLQMNSLKPEDTAVYYCNVRRGLRAYEYWGQGTQVTVSS	high polyreactivity

Sequence	polyreactivity (PSR sort gate)
QVQLVESGGGLVQAGGSLRLSCASSGRIFDSNTMGWYRQAPGKERELVAAINWSDGSTYYADSVKGRFTISRDNAKYTVFLQMNSLKPEDTAVYYCNAGARRYLYDYWVQGTQVTVSS	low polyreactivity
QVQLVESGGGLVQAGGSLRLSCAASGRTFYPNAMGWYRQAPGKERELVAAISLSGTRTNYADSVKGRFTISRDNAKNTVYLQMNSLKPEDTAVYYCAARYGNFDGRNYYWGQGTQVTVSS	high polyreactivity
QVQLVESGGGLVQAGGSLRLSCAASGRTFTTNAMGWYRQAPGKERELVAAITIGDDTYYADSVKGRFTISRDNAKNTVYLQMNSLKPEDTAVYYCNVDGRSDGDDYWGQGTQVTVSS	low polyreactivity
QVQLVESGGGLVQAGGSLRLSCASSGRTFNPYAMGWYRQAPGKERELVAAISRSGGGTYYADSVKGRCTISRDNAKNTVYLQMNSLKPEDTAVYYCNADRATCWEQWWYDNWGQGTQVTVSS	low polyreactivity
QVQLVESGGGLVQAGGSLRLSCAASGSTLVTNAMGWYRQAPGKERELVAAITFSGGTTYYADSVTGRFTISRDNAKNTVYVQMNSLKPEDTAVYYCAAEIWLEYVGYDYWGQGTQVTVSS	high polyreactivity
QVHVVESGGGLVQAGGSLGLSCAASGITFTAYAMGWYRQAPGKERELVATINSTGITNYADSVKGRFTISRDNSKNTVFLQMNSLKPEDTAVYYCAADLLDISSYDGMDYWGQGTQVTVSS	low polyreactivity
QVQLVESGGGLVQAGGSLRVSCAASGFTFSHYAMGWYRQAPGKERELVAAISWGGGSTYYADSVKGRFTISRDNAQNTVYLQMNSLKPEDTAVYYCAARYVLFSNRFDYWGQGTQVTVSS	high polyreactivity
QVQLVESGGGLVQAGGSLRLTCAASGRISRYYAMGWYRQAPGKERELVATITFSGGSTYYADSVKGRFTISRDNAKNTVYLQMNSLKPEDTAVYYCAKQRGGAYLVPWYGYWGQGTQVTVSS	high polyreactivity
QVQLVESGGGLVQAGGSLRLSCAASGFIFSGYAMGWYRQAPGKERELVATISGSGGSTYYADSVKGRFTISRDNAKNTVYLQMNSLKPEDTAVYYCAARQRGGYGYWGQGTQVTVSS	high polyreactivity
QVQLVESGGGLVQAGGSRRLSCAASGRTFEGNAMGWYRPAPGKERELVAAISTSGGRTYYADSVKGRFTISRDNAKNTVYLQLNSLIPEDTAVYDCNTDQYSPYEYSSFDSWGQCTQVTVSS	low polyreactivity
QVQLVESGGGLVQAGGSLRLSCAASGSIFKKYAMGWYRQAPGKERELVAAISSVGGTYYADSVKGRFTISRDNAKNTVYLQMNSLKPEDTAVYYWYTDGYVGSIRSGLYIYDYWGQGTQVTVSS	low polyreactivity
QVQLQESVGGLVLAGGSLRLICSASANISVYGTMGWYRKAPGKEREFVATIDPGTNTNYADSVKDRFTISRDNAKNTVYLQMNSLKPEDTAVYYCEVEGGSDWPYRYWGQGTQVTVSS	low polyreactivity
QVQLVESGGGLVQAGGSLRLSCAASGYTSVGNAMGWYRPAPWKERELVAAITYNGGNTYYADSVKGRFRISRDNAKNTVYLQMNSLKPEDTAVSYCATDSQELASSRFDYWGQGTQVTVSS	low polyreactivity
QVQLVESGGGLVQAGGSLRLSCAASGFTFTAYDMGWYRQAPGKERELVAAISGSGGTTYYADSVKGRFTISRDNAKNTVYLQMNSLKPEDTAVYYCAVDVPSPGGYDSWGQGTQVTVSS	low polyreactivity
QVQLVESGGGLVQAGGSLRLSCAASGSTFQRNAMGWYRQAPGKERELVAAITSRGGSTYYADSVKGRFTISRDNAKNTVSLQMNSLNPEDTGVYYCAALTWARSRNGTYDYWGPGTQVTVSS	high polyreactivity
QVQLVESGGGLVQAGGSLRLSCAASGSIFGGNAMGWYRQAPGKERELVATITSAGSTYYADSVKGRFTISRDNAKNTVYLQMNSLKPEDTAVYYCAADPTYYWRYYPTRLYVEYDYWGQGTQVTVSS	low polyreactivity
QVQLVESGGGLVQAGGSLRLICAASGSTTFYAKGWYRPAPGKEWELVATISSSAGSTYYADSVKGRFTISRDNAKNNVYLEMNSLIPEDTAVFYCDAKYSQLRQYYRLDYWGQGTQVTVSS	low polyreactivity
QLQLVESGGGLVQAGGSLRLSCAASGRIFWPNALGWYRQAPGKEREFVAAIRWSSDRTYYADSVKGRFTISRDNAKNTVYLQRNSLKPEDTAVYYCNAVRYVISKYDYWGQGTQVTVSS	high polyreactivity
QVQLVESGGGLVQAGGSLRLSCAASGRIFIRNTMVWYRQAPGKERELVADISWRGGSTYYADSVKGRFTISRDNAKNTVYLEMNSLKPEDTAVYYSAAVVRSPAYDYWGQGTQVTVSS	high polyreactivity
QVQLVESGGGLVQAGGSLRLRCGASGSTFGIYAMGWYRQAPGKERELVAAITLRTDSTYYADSVKGRFTISRDNAKNTVYLQMNSLKPEDTAVYYCARRYRYGYDYWGQGTQVSVSS	low polyreactivity
QVQLVESGGGLVQAGGSLRLRCAASGRIFARNAMGWYRQAPGKERELVAAISSRGSSTYYADSVKGRFTISRDNAKNTVYLQMNSLKPEDTAVYYCNAYYSVYPPGYDYWGQGTQVTVSS	high polyreactivity
